Assay results: publication PMC11401910, “Dual client binding sites in the ATP-independent chaperone SurA” (Nature Communications, 2024)

B1: OmpX: unfolded E. coli outer membrane protein OmpX, mature sequence residues 24-171 (protein)
chain: ATSTVTGGYAQSDAQGQMNKMGGFNLKYRYEEDNSPLGVIGSFTYTEKSRTASSGDYNKNQYYGITAGPAYRINDWASIYGVVGVGYGKFQTTEYPTYKHDTSDYGFSYGAGLQFNPMENVALDFSYEQSRIRSVDVGTWIAGVGYRF
B2: SurA-core: SurA construct lacking both PPIase domains (residues 172-389 deleted) (protein)
chain: APQVVDKVAAVVNNGVVLESDVDGLMQSVKLNAAQARQQLPDDATLRHQIMERLIMDQIILQMGQKMGVKISDEQLDQAIANIAKQNNMTLDQMRSRLAYDGLNYNTYRNQIRKEMIISEVRNNEVRRRITILPQEVESLAQQVGNQNDASDAAQKDRAYRMLMNRKFSEEAASWMQEQRASAYVKILSN
modifications: left off: His6, N-terminal, state not stated

Tests used:
[1] = molecular target: SurA; details: read-out: Kd, binding of full-length unfolded OmpX to SurA; cited from earlier work
Text: (where Ar is an aromatic residue and X is any amino acid), or aromatic-enriched sequences containing an Ar-X-Ar-X-Pro motif. […] Both of these types of peak changes (shifts and/or broadening), can report on binding or conformational changes caused by binding at the location of the corresponding ^13CH3 probe[73],[74].

[2] = molecular target: T1, SurA-WT (Escherichia coli, UniProt P0ABZ6); assay type: binding; details: pH 8
T1 construct: made in house; host or cells: E. coli BL21(DE3)
Experimental: All NMR experiments were performed on a 950-MHz Bruker Ascend Avance III HD NMR spectrometer equipped with either a Bruker 3 mm TCI or 5 mm TXO triple-resonance cryogenically cooled probe. Peptide binding experiments were performed in 5 mM EDTA, 20 mM Tris-HCl, pH 8.0 with 5 % (v/v) D2O at 25 °C. Binding experiments using full-length OMP sequences also contained 0.8 M urea. Data was acquired for ~16 h with the exception of OMP-containing experiments which were acquired for ~5 h. […] (2D ^1H-^13C SOFAST-HMQC)[70]. […] Errors in the intensity ratios for each peak between two spectra were obtained by propagating the errors according to:1 δR=R*δX/X+δY/Y where δR is the error in the intensity ratio, |R| is the value of the intensity ratio, X and Y are the intensity values for the peak in the first and second spectrum, respectively, and δX and δY are the noise floor values for the first and second spectrum, respectively.
Z-scores for intensity ratio and CSP data were calculated using:3 Zi=xi−μ/σ where xi is the value for a particular peak, and µ and σ are the mean and standard deviation for all peaks, respectively.
For assignment of SurA-WT Ile and Met residues (43 in total) each residue was individually mutated (Supplementary Table 3), and the effect of the mutation assessed by methyl-TROSY NMR. Samples contained 5–70 µM SurA variant. […]

[3] = test system: OmpX; details: ~75 pM double-labelled OmpX, 30 μM SurA variant, 20 mM Tris-HCl, 0.1 M urea, 0.02% Tween-20, pH 8.0, ~21 °C; apo-OmpX ~0.85
Experimental: Samples were measured at a volume of 100 μL in an 18 well sample chamber (81817, Ibidi) with the focal spot 50 μm above the cover glass on a custom-built confocal microscope (Supplementary Methods) at room temperature (~21 °C). […] Aged Trolox was prepared by adding 1 mM of Trolox to measurement buffer and incubating the sample overnight at room temperature on a rotary shaker to dissolve before being filtered using a 0.22 μm pore size membrane. Tween-20 (0.02% v/v) was added to prevent non-specific absorption to the glass slide.
The ptu files from the SymPhoTime64 software were converted into HDF5 data files using phconvert v0.9 (available at https://github.com/Photon-HDF5/phconvert). Each of these files was then merged to create one file for each condition. […] Firstly, the background was independently calculated for every 60 s period of measurement. […]
BVA[68] was used to assay for dynamics on the ms timescale occurring during bursts. This analysis compares the expected variance in Eraw based on shot noise against the measured variance in Eraw in each individual burst (si). […] To calculate si, we segmented each burst into consecutive windows of 5 photons, and calculated the standard deviation of all windows within the burst. […]

T1 sequence (P0ABZ6 other isoform, or with tags, fused parts or gaps): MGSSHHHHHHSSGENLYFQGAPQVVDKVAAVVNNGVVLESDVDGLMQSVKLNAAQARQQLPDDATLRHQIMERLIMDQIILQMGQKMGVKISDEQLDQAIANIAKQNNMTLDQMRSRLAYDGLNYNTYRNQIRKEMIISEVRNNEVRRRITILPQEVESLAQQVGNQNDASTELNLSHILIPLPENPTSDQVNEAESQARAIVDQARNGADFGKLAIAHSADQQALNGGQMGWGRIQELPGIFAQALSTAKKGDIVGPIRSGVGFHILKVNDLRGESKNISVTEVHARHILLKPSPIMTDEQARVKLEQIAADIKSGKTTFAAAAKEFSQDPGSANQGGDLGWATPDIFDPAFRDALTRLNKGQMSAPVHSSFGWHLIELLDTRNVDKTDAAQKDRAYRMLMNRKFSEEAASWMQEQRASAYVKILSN

Row | Molecule | Kd [1] [nM] | Interaction of unfolded OMP with SurA-WT domains by methyl-TROSY NMR, in words [2] | Maximum of the raw FRET distribution (Eraw) of OmpX bound to SurA variant [3]
1 | B1 | ~1000 | regions in the core and P1 domains directly interact with OmpX, while P2 is largely uninvolved in OmpX binding | 
2 | B2 |  |  | ~ 0.45
